Results as given in publication PMC10484734, “TLK1-mediated RAD54 phosphorylation spatio-temporally regulates Homologous Recombination Repair” (Nucleic Acids Research, 2023).

B1: recombinant human RAD51 [human] / His6-Thioredoxin-RAD54-Flag (recombinant human RAD54, wild type) [human] (parent complex)
chain 1: MAMQMQLEANADTSVEEESFGPQPISRLEQCGINANDVKKLEEAGFHTVEAVAYAPKKELINIKGISEAKADKILAEAAKLVPMGFTTATEFHQRRSEIIQITTGSKELDKLLQGGIETGSITEMFGEFRTGKTQICHTLAVTCQLPIDRGGGEGKAMYIDTEGTFRPERLLAVAERYGLSGSDVLDNVAYARAFNTDHQTQLLYQASAMMVESRYALLIVDSATALYRTDYSGRGELSARQMHLARFLRMLLRLADEFGVAVVITNQVVAQVDGAAMFAADPKKPIGGNIIAHASTTRLYLRKGRGETRICKIYDSPCLPEAEAMFAINADGVGDAKD
chain 2: MRRSLAPSQLAKRKPEGRSCDDEDWQPGLVTPRKRKSSSETQIQECFLSPFRKPLSQLTNQPPCLDSSQHEAFIRSILSKPFKVPIPNYQGPLGSRALGLKRAGVRRALHDPLEKDALVLYEPPPLSAHDQLKLDKEKLPVHVVVDPILSKVLRPHQREGVKFLWECVTSRRIPGSHGCIMADEMGLGKTLQCITLMWTLLRQSPECKPEIDKAVVVSPSSLVKNWYNEVGKWLGGRIQPLAIDGGSKDEIDQKLEGFMNQRGARVSSPILIISYETFRLHVGVLQKGSVGLVICDEGHRLKNSENQTYQALDSLNTSRRVLISGTPIQNDLLEYFSLVHFVNSGILGTAHEFKKHFELPILKGRDAAASEADRQLGEERLRELTSIVNRCLIRRTSDILSKYLPVKIEQVVCCRLTPLQTELYKRFLRQAKPAEELLEGKMSVSSLSSITSLKKLCNHPALIYDKCVEEEDGFVGALDLFPPGYSSKALEPQLSGKMLVLDYILAVTRSRSSDKVVLVSNYTQTLDLFEKLCRARRYLYVRLDGTMSIKKRAKVVERFNSPSSPDFVFMLSSKAGGCGLNLIGANRLVMFDPDWNPANDEQAMARVWRDGQKKTCYIYRLLSAGTIEEKIFQRQSHKKALSSCVVDEEQDVERHFSLGELKELFILDEASLSDTHDRLHCRRCVNSRQIRPPPDGSDCTSDLAGWNHCTDKWGLRDEVLQAAWDAASTAITFVFHQRSHEEQRGLR

Variants of: B1
Assay: pull-down (silver-stained gel, quantified); read off a plot
chain 2 T41D, chain 2 T59D, chain 2 T700D was tested, and the ratio to parent was roughly 0.27. chain 2 T59D showed a ratio to parent of roughly 0.58. In the case of chain 2 T41D, the ratio to parent is reported as roughly 0.25. Work on chain 2 T41D, chain 2 T59D yielded a ratio to parent of roughly 0.41. Work on chain 2 T700D yielded a ratio to parent of roughly 1.3.

Variants of: B1
Assay: as above
Remark: another data set of the same source
chain 2 T700D showed a ratio to parent of roughly 1.2.
